Test results published in patent US20050100965A1.

Tests used:
[1] = target: (4C/A)-huIL-18 (human) (UniProt Q14116); assay: Biacore, (4C/A)-HuIL-18
[2] = target: 125I labeled rhuIL-18 (human) (UniProt Q14116); assay: Receptor Binding Assay: inhibition of 125I-rhu-IL-18 binding to IL-18Rαβ on TNF-treated KG-1 cells
[3] = target: (4C/A)-huIL-18 (human) (UniProt Q14116); assay: Biacore
[4] = target: NEM-huIL-18 (human) (UniProt Q14116); assay: Biacore
[5] = target: (4C/A)-huIL-18 (human) (UniProt Q14116); assay: cell-based or functional assay
[6] = target: natural human IL-18 (human) (UniProt Q14116); assay: cell-based or functional assay

Which Kd [1] does the source give for “IL-18BP-Fc (from UniProt O95998 31-194) (Fc fusion)” here?
The Kd was 0.19 nM.

What about the koff [1] of the same substance?
Its koff is 2.6e-05 s⁻¹.

What about the kon [1] of the same substance?
The kon was 140000 M⁻¹ s⁻¹.

And the IC50 [2]?
Its IC50 is 1 nM.

And the Kd [3]?
The Kd was 0.135 nM.

And the Kd [4]?
Its Kd is 0.098 nM.

And the KG-1, Neutralization Potency in vitro (IC50, nM) [5]?
Its KG-1, Neutralization Potency in vitro (IC50, nM) is 0.03 nM.

What about the WBA, Neutralization Potency in vitro (IC50, nM) [6] of the same substance?
Its WBA, Neutralization Potency in vitro (IC50, nM) is 5.7 nM.
